Measured values as given in patent US20050282743A1, “Molecular interactions in cells” (Arbor Vita Corporation, priority 2001, published 2005).

T1: GST-AF6 PDZ domain 1 (Homo sapiens (Human)), P55196
T1 chain: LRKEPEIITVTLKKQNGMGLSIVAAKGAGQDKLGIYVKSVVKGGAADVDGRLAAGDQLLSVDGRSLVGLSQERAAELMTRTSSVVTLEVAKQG

T2: GST-DVL2 PDZ domain 1 (Homo sapiens (Human)), O14641
T2 chain: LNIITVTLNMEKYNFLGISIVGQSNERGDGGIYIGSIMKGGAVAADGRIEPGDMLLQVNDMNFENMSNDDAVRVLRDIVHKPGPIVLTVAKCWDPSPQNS

T3: GST-KIAA0561 PDZ domain 1 (Homo sapiens (Human)), O60307
T3 chain: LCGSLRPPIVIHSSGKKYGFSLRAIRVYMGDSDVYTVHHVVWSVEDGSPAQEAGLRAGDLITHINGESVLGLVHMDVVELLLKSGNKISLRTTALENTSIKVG

T4: GST-KIAA0807(S) PDZ domain 1 (Homo sapiens (Human)), Q6P0Q8
T4 chain: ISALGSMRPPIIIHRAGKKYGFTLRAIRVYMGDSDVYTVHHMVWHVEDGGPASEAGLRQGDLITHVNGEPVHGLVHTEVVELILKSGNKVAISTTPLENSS

T5: GST-KIAA0973 PDZ domain 1 (Homo sapiens (Human)), Q9Y2H9
T5 chain: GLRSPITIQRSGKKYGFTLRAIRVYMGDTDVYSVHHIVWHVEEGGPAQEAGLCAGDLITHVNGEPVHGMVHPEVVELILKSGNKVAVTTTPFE

T6: GST-LIM Protein PDZ domain 1 (Homo sapiens (Human)), Q96HC4
T6 chain: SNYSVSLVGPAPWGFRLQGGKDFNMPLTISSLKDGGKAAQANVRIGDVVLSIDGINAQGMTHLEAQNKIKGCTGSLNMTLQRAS

T7: GST-MINT1 PDZ domain 2 (Mus musculus (Mouse)), B2RUJ5
T7 chain: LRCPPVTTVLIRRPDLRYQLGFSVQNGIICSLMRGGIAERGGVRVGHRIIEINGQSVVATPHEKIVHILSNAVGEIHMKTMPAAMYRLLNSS

T8: GST-MINT1 PDZ domains 1, 2, Q02410
T8 chain: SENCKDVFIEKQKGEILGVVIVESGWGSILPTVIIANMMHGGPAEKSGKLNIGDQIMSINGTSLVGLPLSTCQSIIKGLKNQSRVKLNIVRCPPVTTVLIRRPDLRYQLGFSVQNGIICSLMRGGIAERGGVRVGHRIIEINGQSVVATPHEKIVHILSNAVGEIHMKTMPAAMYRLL

T9: GST-MUPP1 PDZ domain 11 (Homo sapiens (Human)), O75970
T9 chain: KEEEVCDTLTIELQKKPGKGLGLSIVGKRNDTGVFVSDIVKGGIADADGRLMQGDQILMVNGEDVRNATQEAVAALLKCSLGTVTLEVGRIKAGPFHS

T10: GST-MUPP1 PDZ domain 3 (Homo sapiens (Human)), O75970
T10 chain: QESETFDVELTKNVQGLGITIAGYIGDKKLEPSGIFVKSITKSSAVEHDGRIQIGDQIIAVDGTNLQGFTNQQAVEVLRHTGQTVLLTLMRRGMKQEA

T11: GST-AIPC PDZ domain 1 (Homo sapiens (Human)), O15018
T11 chain: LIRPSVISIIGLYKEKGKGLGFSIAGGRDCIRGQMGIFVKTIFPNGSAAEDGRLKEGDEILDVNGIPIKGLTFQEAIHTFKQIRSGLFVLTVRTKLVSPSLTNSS

T12: GST-FLJ 10324 PDZ domain 1 [GST: P08515]
T12 chain: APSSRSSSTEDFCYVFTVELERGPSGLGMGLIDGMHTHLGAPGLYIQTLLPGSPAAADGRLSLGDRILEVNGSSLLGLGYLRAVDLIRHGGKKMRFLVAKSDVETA

T13: GST-HEMBA 1003117 PDZ domain 1 (Homo sapiens (Human)), Q96JH8
T13 chain: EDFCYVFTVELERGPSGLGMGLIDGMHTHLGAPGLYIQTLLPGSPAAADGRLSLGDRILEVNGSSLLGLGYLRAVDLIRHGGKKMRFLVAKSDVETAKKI

T14: GST-KIAA0382 PDZ domain 1 (Canis lupus familiaris (Dog) (Canis familiaris)), A0A8I3
T14 chain: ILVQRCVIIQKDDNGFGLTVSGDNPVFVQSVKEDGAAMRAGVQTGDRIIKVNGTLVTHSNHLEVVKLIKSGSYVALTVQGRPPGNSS

T15: GST-MINT1 PDZ domain 1 (Mus musculus (Mouse)), B2RUJ5
T15 chain: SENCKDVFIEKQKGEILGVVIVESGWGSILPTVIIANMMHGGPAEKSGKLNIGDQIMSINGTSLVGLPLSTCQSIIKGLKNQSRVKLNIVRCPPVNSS

T16: GST-MUPP1 PDZ domain 2 (Homo sapiens (Human)), O75970
T16 chain: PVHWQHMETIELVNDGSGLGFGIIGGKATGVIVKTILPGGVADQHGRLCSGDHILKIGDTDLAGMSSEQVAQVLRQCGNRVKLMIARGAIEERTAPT

T17: GST-MUPP1 PDZ domain 7 (Homo sapiens (Human)), O75970
T17 chain: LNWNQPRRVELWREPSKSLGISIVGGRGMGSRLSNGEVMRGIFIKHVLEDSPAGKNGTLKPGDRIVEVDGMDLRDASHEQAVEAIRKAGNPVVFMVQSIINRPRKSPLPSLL

T18: GST-MUPP1 PDZ domain 9 (Homo sapiens (Human)), O75970
T18 chain: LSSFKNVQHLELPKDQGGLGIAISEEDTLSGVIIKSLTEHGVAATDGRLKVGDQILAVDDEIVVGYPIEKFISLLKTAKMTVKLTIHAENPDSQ

T19: GST-PTPL1 PDZ domain 4 (Homo sapiens (Human)), Q12923
T19 chain: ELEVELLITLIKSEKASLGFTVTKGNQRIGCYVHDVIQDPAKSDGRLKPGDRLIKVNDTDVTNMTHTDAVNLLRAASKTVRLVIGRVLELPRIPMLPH

T20: GST-SYNTENIN PDZ domain 1 (Homo sapiens (Human)), O00560
T20 chain: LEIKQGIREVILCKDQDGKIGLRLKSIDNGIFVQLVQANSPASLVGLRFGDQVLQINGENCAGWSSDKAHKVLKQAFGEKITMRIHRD

T21: GST-ZO-3 PDZ domain 3 (Homo sapiens (Human)), O95049
T21 chain: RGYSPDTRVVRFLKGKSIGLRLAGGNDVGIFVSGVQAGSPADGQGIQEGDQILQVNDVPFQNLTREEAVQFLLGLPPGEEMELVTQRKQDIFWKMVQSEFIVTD

T22: GST-APXL-1 PDZ domain 1 (Homo sapiens (Human)), Q13796
T22 chain: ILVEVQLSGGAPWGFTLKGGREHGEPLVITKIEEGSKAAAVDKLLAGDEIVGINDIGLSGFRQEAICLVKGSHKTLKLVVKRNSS

T23: GST-GRIP 1 PDZ domain 6 (Mus musculus (Mouse)), Q925T6
T23 chain: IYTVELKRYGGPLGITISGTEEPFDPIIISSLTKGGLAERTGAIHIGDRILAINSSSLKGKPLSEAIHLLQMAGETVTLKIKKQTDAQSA

T24: GST-KIAA1719 PDZ domain 3 (Homo sapiens (Human)), Q9C0E4
T24 chain: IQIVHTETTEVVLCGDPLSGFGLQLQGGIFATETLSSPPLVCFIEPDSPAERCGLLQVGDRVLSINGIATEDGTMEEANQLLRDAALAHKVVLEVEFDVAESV

T25: GST-KIAA1719 PDZ domain 6 (Homo sapiens (Human)), Q9C0E4
T25 chain: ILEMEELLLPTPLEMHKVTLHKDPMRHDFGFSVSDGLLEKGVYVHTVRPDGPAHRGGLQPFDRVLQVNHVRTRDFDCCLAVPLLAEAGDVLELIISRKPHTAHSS

T26: GST-Shank 1 PDZ domain 1 (Homo sapiens (Human)), Q9UPX8
T26 chain: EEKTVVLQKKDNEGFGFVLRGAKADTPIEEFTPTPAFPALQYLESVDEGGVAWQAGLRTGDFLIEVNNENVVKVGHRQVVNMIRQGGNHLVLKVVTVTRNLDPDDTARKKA

T27: GST-X-11 beta PDZ domain 2 (Rattus norvegicus (Rat)), O35431
T27 chain: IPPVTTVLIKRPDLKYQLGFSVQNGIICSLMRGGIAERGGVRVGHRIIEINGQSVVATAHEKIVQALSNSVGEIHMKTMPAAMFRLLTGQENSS

T28: GST-ENIGMA PDZ domain 1 (Homo sapiens (Human)), Q9NR12
T28 chain: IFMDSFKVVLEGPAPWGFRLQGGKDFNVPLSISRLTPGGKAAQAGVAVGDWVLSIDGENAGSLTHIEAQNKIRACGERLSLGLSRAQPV

T29: GST-LIM-RIL PDZ domain 1 (Homo sapiens (Human)), P50479
T29 chain: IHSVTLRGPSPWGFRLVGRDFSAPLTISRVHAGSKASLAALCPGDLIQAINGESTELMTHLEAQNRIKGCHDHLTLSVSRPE


Key:
Assay in all cases: G' assay
[1] = biological target: T1, GST-AF6 PDZ domain 1 (Homo sapiens …)
[2] = biological target: T2, GST-DVL2 PDZ domain 1 (Homo sapiens …)
[3] = biological target: GST-KIAA0316 PDZ domain 1 (Homo sapiens (Human)), Q14CM0
Sequence of GST-KIAA0316 PDZ domain 1 (Homo sapiens (Human)), Q14CM0 (Q14CM0 72-159): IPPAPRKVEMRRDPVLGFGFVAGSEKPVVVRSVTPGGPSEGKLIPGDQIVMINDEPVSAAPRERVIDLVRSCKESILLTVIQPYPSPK

[4] = biological target: T3, GST-KIAA0561 PDZ domain 1 (Homo sapiens …)
[5] = biological target: T4, GST-KIAA0807(S) PDZ domain 1 (Homo …)
[6] = biological target: T5, GST-KIAA0973 PDZ domain 1 (Homo sapiens …)
[7] = biological target: GST-KIAA807 [GST: P08515]
Sequence of GST-KIAA807 [GST: P08515] (P08515 whole entry, the tested form may be a part): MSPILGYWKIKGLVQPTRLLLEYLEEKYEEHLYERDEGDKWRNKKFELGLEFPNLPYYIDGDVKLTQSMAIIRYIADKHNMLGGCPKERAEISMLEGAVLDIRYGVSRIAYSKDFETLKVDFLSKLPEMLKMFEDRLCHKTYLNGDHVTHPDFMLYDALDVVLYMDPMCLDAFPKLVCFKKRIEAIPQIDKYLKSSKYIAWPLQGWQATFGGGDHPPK

[8] = biological target: T6, GST-LIM Protein PDZ domain 1 (Homo …)
[9] = biological target: T7, GST-MINT1 PDZ domain 2 (Mus musculus …)
[10] = biological target: T8, GST-MINT1 PDZ domains 1, 2, Q02410
[11] = biological target: T9, GST-MUPP1 PDZ domain 11 (Homo sapiens …)
[12] = biological target: T10, GST-MUPP1 PDZ domain 3 (Homo sapiens …)
[13] = biological target: GST-PAR3 PDZ domain 3 (Homo sapiens (Human)), Q8TEW0
Sequence of GST-PAR3 PDZ domain 3 (Homo sapiens (Human)), Q8TEW0 (Q8TEW0 579-681): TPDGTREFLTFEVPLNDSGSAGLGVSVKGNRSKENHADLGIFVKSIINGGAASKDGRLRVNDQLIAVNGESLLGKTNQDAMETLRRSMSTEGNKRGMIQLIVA

[14] = biological target: T11, GST-AIPC PDZ domain 1 (Homo sapiens …)
[15] = biological target: T12, GST-FLJ 10324 PDZ domain 1 [GST: P08515]
[16] = biological target: T13, GST-HEMBA 1003117 PDZ domain 1 (Homo …)
[17] = biological target: T14, GST-KIAA0382 PDZ domain 1 (Canis lupus …)
[18] = biological target: GST-KIAA1222 PDZ domain 1 (Rattus norvegicus (Rat)), O35867
Sequence of GST-KIAA1222 PDZ domain 1 (Rattus norvegicus (Rat)), O35867 (O35867 499-598, tags or fused parts left off): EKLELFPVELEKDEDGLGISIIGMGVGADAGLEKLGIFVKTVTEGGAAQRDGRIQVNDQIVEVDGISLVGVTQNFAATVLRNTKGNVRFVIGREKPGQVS

[19] = biological target: T15, GST-MINT1 PDZ domain 1 (Mus musculus …)
[20] = biological target: T16, GST-MUPP1 PDZ domain 2 (Homo sapiens …)
[21] = biological target: T17, GST-MUPP1 PDZ domain 7 (Homo sapiens …)
[22] = biological target: T18, GST-MUPP1 PDZ domain 9 (Homo sapiens …)
[23] = biological target: T19, GST-PTPL1 PDZ domain 4 (Homo sapiens …)
[24] = biological target: T20, GST-SYNTENIN PDZ domain 1 (Homo sapiens …)
[25] = biological target: T21, GST-ZO-3 PDZ domain 3 (Homo sapiens …)
[26] = biological target: T22, GST-APXL-1 PDZ domain 1 (Homo sapiens …)
[27] = biological target: GST-BAI-1 Associated Protein PDZ domain 2 (Mus musculus (Mouse)), Q6RHR9
Sequence of GST-BAI-1 Associated Protein PDZ domain 2 (Mus musculus (Mouse)), Q6RHR9 (Q6RHR9 455-558): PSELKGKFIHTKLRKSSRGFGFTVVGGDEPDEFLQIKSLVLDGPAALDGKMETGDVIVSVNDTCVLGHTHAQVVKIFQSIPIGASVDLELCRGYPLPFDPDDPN

[28] = biological target: T23, GST-GRIP 1 PDZ domain 6 (Mus musculus …)
[29] = biological target: GST-KIAA1634 PDZ domain 1 (Homo sapiens (Human)), Q5TCQ9
Sequence of GST-KIAA1634 PDZ domain 1 (Homo sapiens (Human)), Q5TCQ9 (Q5TCQ9 401-502): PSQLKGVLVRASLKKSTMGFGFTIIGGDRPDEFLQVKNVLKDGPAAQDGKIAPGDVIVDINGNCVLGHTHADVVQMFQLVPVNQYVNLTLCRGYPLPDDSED

[30] = biological target: T24, GST-KIAA1719 PDZ domain 3 (Homo sapiens …)
[31] = biological target: T25, GST-KIAA1719 PDZ domain 6 (Homo sapiens …)
[32] = biological target: T26, GST-Shank 1 PDZ domain 1 (Homo sapiens …)
[33] = biological target: T27, GST-X-11 beta PDZ domain 2 (Rattus …)
[34] = biological target: T28, GST-ENIGMA PDZ domain 1 (Homo sapiens …)
[35] = biological target: T29, GST-LIM-RIL PDZ domain 1 (Homo sapiens …)
Note: key of the grades not given here.

Binder	Classification [1]	Classification [2]	Classification [5]	Classification [6]	Classification [7]	Classification [8]	Classification [9]	Classification [10]	Classification [11]	Classification [12]	Classification [13]	Classification [15]	Classification [26]	also measured
KTMPAATYRLLTGQEQPVYL (modifications not checked) [MINT-3]	1 A450 class	1 A450 class	1 A450 class	2 A450 class	1 A450 class	1 A450 class	2 A450 class	2 A450 class	2 A450 class	1 A450 class	1 A450 class			Classification [3]: 2 A450 class; Classification [4]: 1 A450 class
KTMPAAMFRLLTGQETPLYI (modifications not checked) [MINT-2]		2 A450 class	4 A450 class		3 A450 class		1 A450 class	5 A450 class	5 A450 class	1 A450 class	5 A450 class	4 A450 class		Classification [14]: 1 A450 class; Classification [16]: 3 A450 class; Classification [17]: 1 A450 class; Classification [18]: 1 A450 class; Classification [19]: 2 A450 class; Classification [20]: 1 A450 class; Classification [21]: 1 A450 class; Classification [22]: 1 A450 class; Classification [23]: 4 A450 class; Classification [24]: 2 A450 class; Classification [25]: 1 A450 class
ALVLIAFCIIRRRPSAYQAL (modifications not checked) [CD68]		2 A450 class	5 A450 class	1 A450 class			2 A450 class	1 A450 class				1 A450 class	2 A450 class	Classification [27]: 3 A450 class; Classification [28]: 1 A450 class; Classification [29]: 2 A450 class; Classification [30]: 1 A450 class; Classification [31]: 1 A450 class; Classification [32]: 1 A450 class; Classification [33]: 1 A450 class
YSATYSELEDPGEMSPPIDL (modifications not checked) [FceRlb]	2 A450 class					2 A450 class							1 A450 class	Classification [34]: 2 A450 class; Classification [35]: 1 A450 class
